Data: US20190345206A1 (MOMENTA PHARMACEUTICALS, published 2019)

How the values were obtained:
FcγRI = biological target: T1, FcγRI (UniProt P12314 16-374, limits assumed); assay: cell-based TR-FRET competition assay (CISBIO kit), FcγRI cells
T1 construct: whole, on cells; also called CD64
Protocol: (§1) A cell-based binding assay was utilized to confirm that the amino acid modifications at positions I253, e.g., I253A, and R292, e.g., R292P, were specific to the intended receptors, e.g., reduced binding affinity to the FcRn receptor and FcγRIIb receptor, respectively. Relative binding of Fc constructs and controls to Fc gamma receptors (FcγRs) was measured using cell-based homogeneous time-resolved fluorescence resonance energy transfer (TR-FRET) competition assays (CISBIO®) kits for FcγRI, FcγRIIa H131, FcγRIIb, and FcγRIIIa V158. Assay reagents were prepared according to the manufacturer's instructions. A 10-point, 3-fold serial dilution series, plus one blank per sample, was generated using an automated liquid handler (Freedom EVOware 150, TECAN®). Assay plates were read on a PHERAstar fluorescent reader (BMG Labtech GmbH) at 665 and 620 nm. An IgG1 sample was used as a control.

FcγRIIIa V158 = biological target: T2, FcγRIIIa V158 (UniProt P08637 17-254, limits assumed); assay: cell-based TR-FRET competition assay (CISBIO kit), FcγRIIIa V158 cells
T2 construct: whole, on cells; V158 is the allotype as printed (mature numbering); also called CD16a
T2 sequence (P08637 17-254 F176V limits assumed): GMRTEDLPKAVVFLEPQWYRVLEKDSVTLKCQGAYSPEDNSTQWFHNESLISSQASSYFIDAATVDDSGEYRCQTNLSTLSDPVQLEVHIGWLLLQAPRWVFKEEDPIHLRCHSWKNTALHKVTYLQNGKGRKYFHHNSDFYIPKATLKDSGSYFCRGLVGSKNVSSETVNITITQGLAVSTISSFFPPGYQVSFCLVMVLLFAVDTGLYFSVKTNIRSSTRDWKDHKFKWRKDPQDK
Protocol: as §1

Recombinant human FcRn = biological target: T3, Recombinant human FcRn (human, UniProt P55899 24-297; P61769 21-119, limits assumed); assay: SPR at pH 6.0; human FcRn in solution over Fc construct captured by goat anti-human IgG
T3 construct: also called neonatal Fc receptor
T3 sequence (P55899 24-297 limits assumed, chain 1 of 2): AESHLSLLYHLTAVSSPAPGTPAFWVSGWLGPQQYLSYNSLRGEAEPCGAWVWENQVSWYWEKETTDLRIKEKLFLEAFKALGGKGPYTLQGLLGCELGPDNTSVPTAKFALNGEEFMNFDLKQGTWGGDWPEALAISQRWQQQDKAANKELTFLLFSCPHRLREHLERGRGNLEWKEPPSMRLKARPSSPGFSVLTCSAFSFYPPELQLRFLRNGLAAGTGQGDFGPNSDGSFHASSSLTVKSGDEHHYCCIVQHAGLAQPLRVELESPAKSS
T3 sequence (P61769 21-119 limits assumed, chain 2 of 2): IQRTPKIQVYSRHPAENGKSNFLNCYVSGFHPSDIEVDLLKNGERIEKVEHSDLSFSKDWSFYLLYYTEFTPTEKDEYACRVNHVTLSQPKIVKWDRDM
Excerpt: To assess the impact of the amino acid modifications at position I253, e.g., I253A, and R292, e.g., R292P, on FcRn binding a surface plasmon resonance (SPR) binding experiment was designed to measure the affinity and normalized binding level of solution-phase human FcRn to sensor-bound Fc constructs at pH 6.0. A goat anti-human IgG was immobilized on reference and test sensor surfaces using amine coupling chemistry. Fc constructs were captured on the test sensor surface. Recombinant human FcRn was flowed over the sensor surface in a dilution series with a top concentration of 1.0 μM. The sensor surface was regenerated at the end of each cycle with 10 mM glycine pH 1.7. Double-reference subtracted sensorgrams were subjected to equilibrium binding analysis; the maximum binding level (RMax) and the equilibrium dissociation constant (KD) were estimated. The normalized maximum binding level was calculated by dividing the RMax by the FC-construct capture level. Construct 16 was captured at the same level as construct 4, […] (FIG. 20).

T1 sequence (P12314 16-374 limits assumed): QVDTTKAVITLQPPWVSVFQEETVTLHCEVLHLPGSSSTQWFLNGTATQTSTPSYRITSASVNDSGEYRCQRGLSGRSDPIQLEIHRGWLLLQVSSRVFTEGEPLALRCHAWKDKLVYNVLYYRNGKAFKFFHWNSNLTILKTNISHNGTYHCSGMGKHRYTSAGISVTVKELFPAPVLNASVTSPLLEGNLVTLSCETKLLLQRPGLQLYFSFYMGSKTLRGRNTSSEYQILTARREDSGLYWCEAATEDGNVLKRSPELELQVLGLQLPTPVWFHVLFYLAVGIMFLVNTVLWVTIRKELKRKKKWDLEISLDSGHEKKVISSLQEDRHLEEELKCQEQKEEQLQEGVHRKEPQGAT

B1: Fc construct 18 (other)
chain 1: DKTHTCPPCPAPELLGGPSVFLFPPKPKDTLMASRTPEVTCVVVDVSHEDPEVKFNWYVDGVEVHNAKTKPPEEQYNSTYRVVSVLTVLHQDWLNGKEYKCKVSNKALPAPIEKTISKAKGQPREPQVYTLPPCRDKLTKNQVSLWCLVKGFYPSDIAVEWESNGQPENNYKTTPPVLDSDGSFFLYSKLTVDKSRWQQGNVFSCSVMHEALHNHYTQKSLSLSPGKGGGGGGGGGGGGGGGGGGGGDKTHTCPPCPAPELLGGPSVFLFPPKPKDTLMISRTPEVTCVVVDVSHEDPEVKFNWYVDGVEVHNAKTKPPEEQYNSTYRVVSVLTVLHQDWLNGKEYKCKVSNKALPAPIEKTISKAKGQPREPQVYTLPPSRDELTKNQVSLTCLVKGFYPSDIAVEWESNGQPENNYKTTPPVLKSDGSFFLYSDLTVDKSRWQQGNVFSCSVMHEALHNHYTQKSLSLSPG
chain 2: DKTHTCPPCPAPELLGGPSVFLFPPKPKDTLMASRTPEVTCVVVDVSHEDPEVKFNWYVDGVEVHNAKTKPPEEQYNSTYRVVSVLTVLHQDWLNGKEYKCKVSNKALPAPIEKTISKAKGQPREPQVCTLPPSRDELTKNQVSLSCAVDGFYPSDIAVEWESNGQPENNYKTTPPVLDSDGSFFLVSKLTVDKSRWQQGNVFSCSVMHEALHNHYTQKSLSLSPG
notes: Construct 4 with R292P in all three Fc domains and I253A in the two N-terminal Fc domains; also called Q1
B1: binds (FcγRI); binds (FcγRIIIa V158).

B2: Fc construct 19 (other)
chain 1: DKTHTCPPCPAPELLGGPSVFLFPPKPKDTLMASRTPEVTCVVVDVSHEDPEVKFNWYVDGVEVHNAKTKPPEEQYNSTYRVVSVLTVLHQDWLNGKEYKCKVSNKALPAPIEKTISKAKGQPREPQVYTLPPCRDKLTKNQVSLWCLVKGFYPSDIAVEWESNGQPENNYKTTPPVLDSDGSFFLYSKLTVDKSRWQQGNVFSCSVMHEALHNHYTQKSLSLSPGKGGGGGGGGGGGGGGGGGGGGDKTHTCPPCPAPELLGGPSVFLFPPKPKDTLMASRTPEVTCVVVDVSHEDPEVKFNWYVDGVEVHNAKTKPPEEQYNSTYRVVSVLTVLHQDWLNGKEYKCKVSNKALPAPIEKTISKAKGQPREPQVYTLPPSRDELTKNQVSLTCLVKGFYPSDIAVEWESNGQPENNYKTTPPVLKSDGSFFLYSDLTVDKSRWQQGNVFSCSVMHEALHNHYTQKSLSLSPG
chain 2: DKTHTCPPCPAPELLGGPSVFLFPPKPKDTLMASRTPEVTCVVVDVSHEDPEVKFNWYVDGVEVHNAKTKPPEEQYNSTYRVVSVLTVLHQDWLNGKEYKCKVSNKALPAPIEKTISKAKGQPREPQVCTLPPSRDELTKNQVSLSCAVDGFYPSDIAVEWESNGQPENNYKTTPPVLDSDGSFFLVSKLTVDKSRWQQGNVFSCSVMHEALHNHYTQKSLSLSPG
notes: Construct 4 with R292P and I253A in all three Fc domains; also called Q2
B2: no binding (tested: top concentration of 1.0 µM) (Recombinant human FcRn).
